Measured values taken from patent US6423315 (UNIVERSITY OF TENNESSEE RESEARCH, dated 2002).
Ends that are not written are not given here.

Target: I-A^q molecule of MHC (mouse (DBA/1))
Assay: cell-based or functional assay

B1: CII 245-270 [s266, 267, 269] (peptide)
peptide: PTGPLGPKGQTGELGIAGFKGDTGAK
modifications: not fully specified
IL-2 U/ml, T-cell hybridoma 2qCII92.33, molar ratio competitor:CII 245-270 1.6:1: 160 U/ml | IL-2 U/ml, T-cell hybridoma 2qCII92.33, molar ratio competitor:CII 245-270 3.2:1: 160 U/ml | IL-2 U/ml, T-cell hybridoma 2qCII92.33, molar ratio competitor:CII 245-270 6.5:1: 160 U/ml | IL-2 U/ml, T-cell hybridoma 2qCII92.33, molar ratio competitor:CII 245-270 13:1: 160 U/ml | IL-2 U/ml, T-cell hybridoma qCII85.33, molar ratio competitor:CII 245-270 1.6:1: 640 U/ml | IL-2 U/ml, T-cell hybridoma qCII85.33, molar ratio competitor:CII 245-270 3.2:1: 640 U/ml | IL-2 U/ml, T-cell hybridoma qCII85.33, molar ratio competitor:CII 245-270 6.5:1: 640 U/ml | IL-2 U/ml, T-cell hybridoma qCII85.33, molar ratio competitor:CII 245-270 13:1: 640 U/ml | IL-2 U/ml, T-cell hybridoma qCII98.10, molar ratio competitor:CII 245-270 1.6:1: 160 U/ml | IL-2 U/ml, T-cell hybridoma qCII98.10, molar ratio competitor:CII 245-270 3.2:1: 160 U/ml | IL-2 U/ml, T-cell hybridoma qCII98.10, molar ratio competitor:CII 245-270 6.5:1: 160 U/ml | IL-2 U/ml, T-cell hybridoma qCII98.10, molar ratio competitor:CII 245-270 13:1: 160 U/ml
